Holding throughout (assay): NanoBiT (ratiometric protein-fragment complementation assay in live yeast)
What all share (settings): four experimental replicates; read off a plot

One assay deals with Caf40.
The target in another assay is Eft2.
Assay [1] has as its target Nmd2/Upf2 [S. cerevisiae].

Upf1-SmBiT (from UniProt P30771) C122S: the values for the other: NanoBiT ratio (log2 scale) with Caf40 and with Eft2 were 1.4 log2 and 1.1 log2, respectively.

For “Upf1-SmBiT mutant C122S [S. cerevisiae] / Nmd2/Upf2 [S. cerevisiae] chain 1 C122S”, the screen value in assay [1] was -2.5 log2.
